Laboratory results: US7598032B2, “Thermostable DNA polymerases incorporating nucleoside triphosphates labeled with fluorescent dyes” (Roche Molecular Systems, priority 1997, dated 2009)

How the values were obtained:
[1] = biological target: T1, Thermus aquaticus (Taq) DNA polymerase variant G46D F667Y E681K (Thermus aquaticus, UniProt P19821, E681K/F667Y/G46D); test: Limiting template primer extension competition assay (ddNTP incorporation), G46D F667Y E681K Taq; assay type: biochemical
T1 construct: Expression vector pRDA3-2 contains the full-length Taq DNA polymerase gene; made in house; host or cells: E. coli DG116 (plasmid pLK113)
Experimental: The ability of the enzymes of this invention to efficiently incorporate nucleotides labeled with fluorescein family dyes is measured by ddNTP incorporation assays. One such assay is a primer extension competition assay conducted under conditions of limiting template. In this assay, a primer DG48 (5′-[…]), (SEQ ID NO: 11), bound to M13 mp18 template (Innis et al., 1988, Proc. Natl. Acad. Sci. USA 85:9436) is extended in the presence of [α-^33P]dCTP and excess enzyme with various levels of a fluorescently labeled ddNTP, Zowie-ddCTP. Because the incorporation of a ddCTP residue terminates the extension reaction, the more readily a DNA polymerase incorporates a ddCTP into an extended primer, the less [α-^33P]dCTP can be incorporated. Thus, as the efficiency of fluorescently labeled ddCTP incorporation increases, the extent of inhibition of DNA synthesis is increased. The reactions were also performed with various levels of an unlabeled ddCTP. […]
The relative abilities of G46D F667Y Taq, G46D F667Y E681K Taq and F730Y Tma30 DNA polymerases to incorporate a fluorescein dye family-labeled ddCTP were compared by use of a limiting template, primer extension competition assay. […] In this competition assay, because the incorporation of a ddCTP terminates the extension reaction, the more readily the polymerase incorporates a ddCTP into an extended primer, the less [α-^33P]dCTP can be incorporated. […]

[2] = test system: M13 mp18 single-strand DNA template; test: Cycle sequencing with fluorescein labeled ddNTPs (dye-terminator sequencing); assay type: biochemical
Experimental: The fluorescein dye labeled dideoxy terminators are reagents from the Applied Biosystems PRISM Sequenase® Terminator Sequencing Kits (Perkin-Elmer, Norwalk, Conn.) and were optimized for use with Sequenase DNA polymerase and alpha-thio dNTPs. Cycle sequencing reactions were performed in a 20 μl volume containing 50 mM Tris-HCl (pH 8.8), 2.0 mM MgCl2, 100 μM each dATP, dCTP, and dTTP (Perkin-Elmer, Norwalk, Conn.), 500 μM dITP (Pharmacia Biotech, Piscataway, N.J.), 0.2 μM13 mp18 single-strand DNA template (Perkin-Elmer), 0.15 μM LacZ Forward Primer (Perkin-Elmer), 5 units of G46D F667Y E681K Taq DNA polymerase, 20 units of rTth Thermostable Pyrophosphatase (U.S. Ser. No. 08/528,384), 0.05 μM Sequenase A Dye Terminator, 0.80 μM Sequenase C Dye Terminator, 0.08 μM Sequenase G Dye Terminator, and 1.0 μM Sequenase T Dye Terminator. All four Sequenase Dye Terminators were purchased from Perkin-Elmer. Reactions were placed in a preheated (75° C.) Perkin-Elmer GeneAmp® PCR System 9600 thermal cycler and subjected to 25 cycles of 96° C. for 10 seconds, 50° C. for 5 seconds, and 60° C. for 4 minutes. Dye labeled fragments were purified with Centri-Sep™ columns (Princeton Separations, Adelphia, N.J.) following the manufacturer's instructions and dried in a vacuum centrifuge. Pellets were resuspended in 6 μl of deionized formamide:50 mg/mL Blue dextran (in 25 mM EDTA, pH 8.0) 5:1 (v/v), heated at 90° C. for 3 minutes, and directly loaded onto a pre-electrophoresed 4% polyacrylamide/6 M urea gel and electrophoresed and analyzed on a Perkin-Elmer ABI PRISM' 377 DNA Sequencer according to the manufacturer instructions (ABI PRISM 377 DNA Sequencer User's Manual).

Molecule | IC50 [1] | accuracy of automated base-calling ([2]; for 450 bases, ABI PRISM 377 DNA Sequencer, 1 μM or less ddNTP) | base-calling errors ([2]; for bases +10 to +460 from primer) | sequencing ladder with fluorescein dye family-labeled ddNTPs ([2]; sequencing reaction with fluorescein dye family-labeled ddNTPs)
Nc1ccn([C@H]2CC[C@@H](COP(=O)(O)OP(=O)(O)OP(=O)(O)O)O2)c(=O)n1 [ddCTP] | 116 nM | – | – | –
G46D F667Y E681K Taq: thermostable Taq DNA polymerase with G46D, F667Y and E681K mutations, encoded by plasmid pLK113 (protein, UniProt P19821 1-832, looked up, variant G46D F667Y E681K) DNA polymerase I, thermostable: MRGMLPLFEPKGRVLLVDGHHLAYRTFHALKGLTTSRGEPVQAVYDFAKSLLKALKEDGDAVIVVFDAKAPSFRHEAYGGYKAGRAPTPEDFPRQLALIKELVDLLGLARLEVPGYEADDVLASLAKKAEKEGYEVRILTADKDLYQLLSDRIHVLHPEGYLITPAWLWEKYGLRPDQWADYRALTGDESDNLPGVKGIGEKTARKLLEEWGSLEALLKNLDRLKPAIREKILAHMDDLKLSWDLAKVRTDLPLEVDFAKRREPDRERLRAFLERLEFGSLLHEFGLLESPKALEEAPWPPPEGAFVGFVLSRKEPMWADLLALAAARGGRVHRAPEPYKALRDLKEARGLLAKDLSVLALREGLGLPPGDDPMLLAYLLDPSNTTPEGVARRYGGEWTEEAGERAALSERLFANLWGRLEGEERLLWLYREVERPLSAVLAHMEATGVRLDVAYLRALSLEVAEEIARLEAEVFRLAGHPFNLNSRDQLERVLFDELGLPAIGKTEKTGKRSTSAAVLEALREAHPIVEKILQYRELTKLKSTYIDPLPDLIHPRTGRLHTRFNQTATATGRLSSSDPNLQNIPVRTPLGQRIRRAFIAEEGWLLVALDYSQIELRVLAHLSGDENLIRVFQEGRDIHTETASWMFGVPREAVDPLMRRAAKTINYGVLYGMSAHRLSQKLAIPYEEAQAFIERYFQSFPKVRAWIEKTLEEGRRRGYVETLFGRRRYVPDLEARVKSVREAAERMAFNMPVQGTAADLMKLAMVKLFPRLEEMGARMLLQVHDELVLEAPKERAEAVARLAKEVMEGVYPLAVPLEVEVGIGEDWLSAKE | – | greater than 98.5% | 6 errors | readable sequencing ladder
